Assay results published in patent US20110195900A1, “PEPTIDIC PTH RECEPTOR AGONISTS” (FERRING B.V., priority 2008, published 2011).
Non-standard residues stand in square brackets, D forms with d. Residues, ends and D or L forms follow the SMILES beside them. No end group written: not given here. 1Nal = N[C@@H](Cc1cccc2ccccc12)C(=O)O; 2Nal = N[C@@H](Cc1ccc2ccccc2c1)C(=O)O; β3hI = CC[C@H](C)[C@H](N)CC(=O)O; β3hR = N=C(N)NCCC[C@H](N)CC(=O)O; Nle = CCCC[C@H](N)C(=O)O; Aib = CC(C)(N)C(=O)O; βAla = NCCC(=O)O

Legend:
human PTH-1 receptor = target: T1, human PTH-1 receptor (Homo sapiens, UniProt Q03431); assay: Reporter gene assay (CRE-luciferase) for agonist activity in transiently transfected HEK-293 cells; type: cell-based
T1 construct: expressed in transfected cells; host or cells: HEK-293
T1 sequence (Q03431 27-593): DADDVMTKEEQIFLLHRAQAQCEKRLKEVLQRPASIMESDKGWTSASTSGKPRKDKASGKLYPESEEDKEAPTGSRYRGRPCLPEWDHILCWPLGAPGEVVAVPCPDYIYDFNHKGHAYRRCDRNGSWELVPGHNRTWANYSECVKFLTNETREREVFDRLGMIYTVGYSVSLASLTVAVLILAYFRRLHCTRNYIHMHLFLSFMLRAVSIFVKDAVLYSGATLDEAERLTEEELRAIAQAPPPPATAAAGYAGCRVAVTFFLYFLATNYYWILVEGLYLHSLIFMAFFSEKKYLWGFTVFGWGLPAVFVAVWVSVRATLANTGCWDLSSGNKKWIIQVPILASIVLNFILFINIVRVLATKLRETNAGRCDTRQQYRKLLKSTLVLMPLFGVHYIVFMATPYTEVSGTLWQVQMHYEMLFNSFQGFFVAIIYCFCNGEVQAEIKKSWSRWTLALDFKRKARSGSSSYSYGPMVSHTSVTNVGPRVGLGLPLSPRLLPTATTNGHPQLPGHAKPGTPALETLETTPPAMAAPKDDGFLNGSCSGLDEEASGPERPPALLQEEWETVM
Summary of the method: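 HEK-293 cells transiently transfected with SV40-driven human PTH-1 receptor and CRE-luciferase reporter, exposed to serial compound dilutions for 4-5 h, then lysed for luciferase readout; efficacy and EC50 by non-linear regression, PTH (1-34) as internal control, n≥3. Selectivity measured in analogous human PTH-2 receptor luciferase reporter assays.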

[1] = target: human parathyroid hormone receptor 2 (human, UniProt P49190); assay: cell-based or functional assay
[2] = target: human parathyroid hormone receptor 1 (human, UniProt Q03431); assay: cell-based or functional assay

`CCCC[C@H](NC(=O)[C@H](CC(C)C)NC(=O)[C@H](CCC(N)=O)NC(=O)[C@@H](NC(=O)[C@H](CCC(=O)O)NC(=O)[C@H](CO)NC(=O)[C@@H](NC(=O)[C@@H](N)CO)C(C)C)[C@@H](C)CC)C(=O)N[C@@H](Cc1c[nH]cn1)C(=O)N[C@@H](CC(N)=O)C(=O)N[C@@H](CC(C)C)C(=O)NC(C)(C)C(=O)NC(C)(C)C(=O)N[C@@H](Cc1c[nH]cn1)C(=O)N[C@@H](CC(C)C)C(=O)N[C@@H](CC(N)=O)C(=O)N[C@@H](CO)C(=O)N[C@H](CC(=O)N[C@@H](CCC(=O)O)C(=O)N[C@@H](CCCNC(=N)N)C(=O)N[C@H](C(=O)N[C@@H](CCC(=O)O)C(=O)N[C@@H](Cc1cccc2ccccc12)C(=O)N[C@@H](CC(C)C)C(=O)N[C@@H](CCCNC(=N)N)C(=O)N[C@@H](CCCCN)C(=O)N[C@@H](CC(C)C)C(=O)N[C@@H](CC(C)C)C(=O)N[C@@H](CCC(N)=O)C(=O)N[C@@H](CC(=O)O)C(=O)N[C@H](C(=O)N[C@@H](Cc1c[nH]cn1)C(=O)N[C@@H](CC(N)=O)C(=O)N[C@@H](Cc1ccccc1)C(N)=O)C(C)C)C(C)C)[C@@H](C)CC` [SEQ ID NO: 31, [Nle^8, Aib^12,13, β-hIle^18,1-Nal^23, Leu^27] hPTH (1-34)-NH2] (H-SVSEIQL[Nle]HNL[Aib][Aib]HLNS[β3hI]ERVE[1Nal]LRKLLQDVHNF-NH2; N-terminus assumed) gave an EC50 (human PTH-1 receptor) of 0.25 nM and a hPTHR-2/hPTHR-1 (human PTH-1 receptor; Table 3, ratio of EC50 values, selectivity for hPTH-1 receptor over hPTH-2 receptor) of 138.

In the case of `CCCC[C@H](NC(=O)[C@H](CC(C)C)NC(=O)[C@H](CCC(N)=O)NC(=O)[C@@H](NC(=O)[C@H](CCC(=O)O)NC(=O)[C@H](CO)NC(=O)[C@@H](NC(=O)[C@@H](N)CO)C(C)C)[C@@H](C)CC)C(=O)N[C@@H](Cc1c[nH]cn1)C(=O)N[C@@H](CC(N)=O)C(=O)N[C@@H](CC(C)C)C(=O)NCC(=O)N[C@@H](CCCCN)C(=O)N[C@@H](Cc1c[nH]cn1)C(=O)N[C@@H](CC(C)C)C(=O)N[C@@H](CC(N)=O)C(=O)N[C@@H](CO)C(=O)N[C@@H](CCCNC(=N)N)CC(=O)N[C@@H](CCC(=O)O)C(=O)N[C@@H](CCCNC(=N)N)C(=O)N[C@H](C(=O)N[C@@H](CCC(=O)O)C(=O)N[C@@H](Cc1ccc2ccccc2c1)C(=O)N[C@@H](CC(C)C)C(=O)N[C@@H](CCCNC(=N)N)C(=O)N[C@@H](CCCCN)C(=O)N[C@@H](CCCCN)C(=O)N[C@@H](CC(C)C)C(=O)N[C@@H](CCC(N)=O)C(=O)N[C@@H](CC(=O)O)C(=O)N[C@H](C(=O)N[C@@H](Cc1c[nH]cn1)C(=O)N[C@@H](CC(N)=O)C(=O)N[C@@H](Cc1ccccc1)C(N)=O)C(C)C)C(C)C` [SEQ ID NO: 54, [Nle^8, β-hArg^18,2-Nal^23] hPTH (1-34)-NH2] (H-SVSEIQL[Nle]HNLGKHLNS[β3hR]ERVE[2Nal]LRKKLQDVHNF-NH2), the “Selectivity hPTHR-2/hPTHR-1” value (human PTH-1 receptor; Table 4 comparison data, ratio of EC50 values) is reported as 147.

B1: [Nle^8, β-hIle^18, 1-Nal^23, Leu^27] hPTH-(1-31)-NH2 (peptide)
peptide: SVSEIQL[Nle]HNLGKHLNS[β3hI]ERVE[1Nal]LRKLLQDV-NH2
With B1 the “hPTHR-2 EC50 (nM), luciferase reporter gene assay” value (“hPTHR-2 EC50 (nM)” for short) [1] was 32 nM and the “hPTHR-1 EC50 (nM), CRE-luciferase reporter gene assay” value (“hPTHR-1 EC50 (nM)” below) [2] was 0.09 nM.

B2: [Aib^1, Nle^8, β-hIle^18, 1-Nal^23, Leu^27] hPTH (1-31)-NH2 (peptide)
peptide: [Aib]VSEIQL[Nle]HNLGKHLNS[β3hI]ERVE[1Nal]LRKLLQDV-NH2
In the case of B2, the “hPTHR-2 EC50 (nM)” value [1] is reported as 18 nM and the “hPTHR-1 EC50 (nM)” value [2] is reported as 0.05 nM.

B3: [Aib^1, Nle^8, Glu^10, Lys^16, β-hIle^18, 1-Nal^23, Leu^27, Glu^30, Glu^33, Lys^34] hPTH(1-34)-NH2 (peptide)
peptide: [Aib]VSEIQL[Nle]HELGKHLKS[β3hI]ERVE[1Nal]LRKLLQEVHEK-NH2
In the case of B3, the “hPTHR-2 EC50 (nM)” value [1] is reported as 1 nM and the “hPTHR-1 EC50 (nM)” value [2] is reported as 0.04 nM.

B4: [Aib^1, Nle^8,18, Ser^10, Lys^16, β-Ala^17, 1-Nal^23, Leu^27, Arg^30, Glu^33, Glu^34] hPTH (1-34)-NH2 (peptide)
peptide: [Aib]VSEIQL[Nle]HSLGKHLK[βAla][Nle]ERVE[1Nal]LRKLLQRVHEE-NH2
With B4 the “hPTHR-2 EC50 (nM)” value [1] was 7 nM and the “hPTHR-1 EC50 (nM)” value [2] was 0.03 nM.

B5: [Nle^8,18, β-Ala^19, 1-Nal^23] hPTH (1-34)-NH2 (peptide)
peptide: SVSEIQL[Nle]HNLGKHLNS[Nle][βAla]RVE[1Nal]LRKKLQDVHNF-NH2
modifications: N-terminus assumed
SMILES: CCCC[C@H](NC(=O)[C@H](CO)NC(=O)[C@H](CC(N)=O)NC(=O)[C@H](CC(C)C)NC(=O)[C@H](Cc1c[nH]cn1)NC(=O)[C@H](CCCCN)NC(=O)CNC(=O)[C@H](CC(C)C)NC(=O)[C@H](CC(N)=O)NC(=O)[C@H](Cc1c[nH]cn1)NC(=O)[C@H](CCCC)NC(=O)[C@H](CC(C)C)NC(=O)[C@H](CCC(N)=O)NC(=O)[C@@H](NC(=O)[C@H](CCC(=O)O)NC(=O)[C@H](CO)NC(=O)[C@@H](NC(=O)[C@@H](N)CO)C(C)C)[C@@H](C)CC)C(=O)NCCC(=O)N[C@@H](CCCNC(=N)N)C(=O)N[C@H](C(=O)N[C@@H](CCC(=O)O)C(=O)N[C@@H](Cc1cccc2ccccc12)C(=O)N[C@@H](CC(C)C)C(=O)N[C@@H](CCCNC(=N)N)C(=O)N[C@@H](CCCCN)C(=O)N[C@@H](CCCCN)C(=O)N[C@@H](CC(C)C)C(=O)N[C@@H](CCC(N)=O)C(=O)N[C@@H](CC(=O)O)C(=O)N[C@H](C(=O)N[C@@H](Cc1c[nH]cn1)C(=O)N[C@@H](CC(N)=O)C(=O)N[C@@H](Cc1ccccc1)C(N)=O)C(C)C)C(C)C
In the case of B5, the “hPTHR-2 EC50 (nM)” value [1] is reported as 11 nM and the “hPTHR-1 EC50 (nM)” value [2] is reported as 0.21 nM.

B6: [Nle^8, β-hIle^18, 1-Nal^23] hPTH (1-34)-OH (peptide)
peptide: SVSEIQL[Nle]HNLGKHLNS[β3hI]ERVE[1Nal]LRKKLQDVHNF-OH
modifications: N-terminus assumed
SMILES: CCCC[C@H](NC(=O)[C@H](CC(C)C)NC(=O)[C@H](CCC(N)=O)NC(=O)[C@@H](NC(=O)[C@H](CCC(=O)O)NC(=O)[C@H](CO)NC(=O)[C@@H](NC(=O)[C@@H](N)CO)C(C)C)[C@@H](C)CC)C(=O)N[C@@H](Cc1c[nH]cn1)C(=O)N[C@@H](CC(N)=O)C(=O)N[C@@H](CC(C)C)C(=O)NCC(=O)N[C@@H](CCCCN)C(=O)N[C@@H](Cc1c[nH]cn1)C(=O)N[C@@H](CC(C)C)C(=O)N[C@@H](CC(N)=O)C(=O)N[C@@H](CO)C(=O)N[C@H](CC(=O)N[C@@H](CCC(=O)O)C(=O)N[C@@H](CCCNC(=N)N)C(=O)N[C@H](C(=O)N[C@@H](CCC(=O)O)C(=O)N[C@@H](Cc1cccc2ccccc12)C(=O)N[C@@H](CC(C)C)C(=O)N[C@@H](CCCNC(=N)N)C(=O)N[C@@H](CCCCN)C(=O)N[C@@H](CCCCN)C(=O)N[C@@H](CC(C)C)C(=O)N[C@@H](CCC(N)=O)C(=O)N[C@@H](CC(=O)O)C(=O)N[C@H](C(=O)N[C@@H](Cc1c[nH]cn1)C(=O)N[C@@H](CC(N)=O)C(=O)N[C@@H](Cc1ccccc1)C(=O)O)C(C)C)C(C)C)[C@@H](C)CC
With B6 the “hPTHR-2 EC50 (nM)” value [1] was 26 nM and the “hPTHR-1 EC50 (nM)” value [2] was 0.21 nM.

B7: [Nle^8, β-hIle^18, 1-Nal^23, Leu^27] hPTH (1-34)-OH (peptide)
peptide: SVSEIQL[Nle]HNLGKHLNS[β3hI]ERVE[1Nal]LRKLLQDVHNF-OH
B7 was tested, and the “hPTHR-2 EC50 (nM)” value [1] was 23 nM and the “hPTHR-1 EC50 (nM)” value [2] was 0.14 nM.

B8: [Nle^8, β-hIle^18, 1-Nal^23, Leu^27] hPTH (1-31)-OH (peptide)
peptide: SVSEIQL[Nle]HNLGKHLNS[β3hI]ERVE[1Nal]LRKLLQDV-OH
In the case of B8, the “hPTHR-2 EC50 (nM)” value [1] is reported as 76 nM and the “hPTHR-1 EC50 (nM)” value [2] is reported as 0.09 nM.

B9: [Nle^8,18, β-Ala^19, 1-Nal^23, Leu^27] hPTH-(1-34)-NH2 (peptide)
peptide: SVSEIQL[Nle]HNLGKHLNS[Nle][βAla]RVE[1Nal]LRKLLQDVHNF-NH2
modifications: N-terminus assumed
SMILES: CCCC[C@H](NC(=O)[C@H](CO)NC(=O)[C@H](CC(N)=O)NC(=O)[C@H](CC(C)C)NC(=O)[C@H](Cc1c[nH]cn1)NC(=O)[C@H](CCCCN)NC(=O)CNC(=O)[C@H](CC(C)C)NC(=O)[C@H](CC(N)=O)NC(=O)[C@H](Cc1c[nH]cn1)NC(=O)[C@H](CCCC)NC(=O)[C@H](CC(C)C)NC(=O)[C@H](CCC(N)=O)NC(=O)[C@@H](NC(=O)[C@H](CCC(=O)O)NC(=O)[C@H](CO)NC(=O)[C@@H](NC(=O)[C@@H](N)CO)C(C)C)[C@@H](C)CC)C(=O)NCCC(=O)N[C@@H](CCCNC(=N)N)C(=O)N[C@H](C(=O)N[C@@H](CCC(=O)O)C(=O)N[C@@H](Cc1cccc2ccccc12)C(=O)N[C@@H](CC(C)C)C(=O)N[C@@H](CCCNC(=N)N)C(=O)N[C@@H](CCCCN)C(=O)N[C@@H](CC(C)C)C(=O)N[C@@H](CC(C)C)C(=O)N[C@@H](CCC(N)=O)C(=O)N[C@@H](CC(=O)O)C(=O)N[C@H](C(=O)N[C@@H](Cc1c[nH]cn1)C(=O)N[C@@H](CC(N)=O)C(=O)N[C@@H](Cc1ccccc1)C(N)=O)C(C)C)C(C)C
For B9, the “hPTHR-2 EC50 (nM)” value [1] was 18 nM and the “hPTHR-1 EC50 (nM)” value [2] was 0.26 nM.
